The values that follow come from PMC10361598.

The target in test [1] is CXCR4^QTY-Fc (not stated | rabbit). Put plainly: graphene field-effect transistor array.
Test [2] has the same target. Put plainly: graphene field-effect transistor array. The source holds these as a separate data set.

Like-named read-outs stand apart in the source and are kept apart here.

Take “recombinant HIV coat glycoprotein gp_(41–120)”: the figures for the Kd in test [1] and in test [2] were 19.1 nM and 5.8 nM, respectively.
